How the values were obtained:
[1] = molecular target: recombinant C-terminal 90 amino acids of human HIF-1a, C of the hydroxylation motif changed to alanine, Q16665
[2] = molecular target: recombinant C-terminal 90 amino acids of human HIF-1a, valine preceding the target asparagine changed to alanine, Q16665
[3] = molecular target: recombinant C-terminal 90 amino acids of human HIF-1a, glutamic acid (E) of the hydroxylation motif changed to alanine, Q16665
[4] = molecular target: recombinant C-terminal 90 amino acids of human HIF-1a, D of the hydroxylation motif changed to alanine, Q16665
Sequence of recombinant C-terminal 90 amino acids of human HIF-1a, D of the hydroxylation motif changed to alanine, Q16665 (Q16665 737-826 D799A): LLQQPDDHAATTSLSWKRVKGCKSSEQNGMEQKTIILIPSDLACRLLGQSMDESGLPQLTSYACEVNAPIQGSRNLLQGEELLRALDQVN

[5] = molecular target: recombinant C-terminal 90 amino acids of human HIF-1a, wild type, Q16665
Sequence of recombinant C-terminal 90 amino acids of human HIF-1a, wild type, Q16665 (Q16665 737-826): as the sequence (Q16665 737-826 D799A) above, with A63D counted along it

[6] = molecular target: recombinant C-terminal 90 amino acids of human HIF-1a, conserved G 5 amino acids C-terminal to the target asparagine changed to alanine, Q16665
Sequence of recombinant C-terminal 90 amino acids of human HIF-1a, conserved G 5 amino acids C-terminal to the target asparagine changed to alanine, Q16665 (Q16665 other isoform, or with tags, fused parts or gaps): as the sequence (Q16665 737-826 D799A) above, with A63D, G72A counted along it

[7] = molecular target: recombinant C-terminal 90 amino acids of human HIF-1a, tyrosine (Y) of the hydroxylation motif changed to alanine, Q16665
Sequence of recombinant C-terminal 90 amino acids of human HIF-1a, tyrosine (Y) of the hydroxylation motif changed to alanine, Q16665 (Q16665 737-826 Y798A): as the sequence (Q16665 737-826 D799A) above, with Y62A, A63D counted along it

Sequence of recombinant C-terminal 90 amino acids of human HIF-1a, C of the hydroxylation motif changed to alanine, Q16665 (Q16665 737-826 C800A): as the sequence (Q16665 737-826 D799A) above, with A63D, C64A counted along it
Sequence of recombinant C-terminal 90 amino acids of human HIF-1a, valine preceding the target asparagine changed to alanine, Q16665 (Q16665 other isoform, or with tags, fused parts or gaps): as the sequence (Q16665 737-826 D799A) above, with A63D, V66A counted along it
Sequence of recombinant C-terminal 90 amino acids of human HIF-1a, glutamic acid (E) of the hydroxylation motif changed to alanine, Q16665 (Q16665 other isoform, or with tags, fused parts or gaps): as the sequence (Q16665 737-826 D799A) above, with A63D, E65A counted along it

B1: MBP (maltose binding protein) fused to wild type HIF Asparagine Hydroxylase (HNH) (protein)
chain: MAATAAEAVASGSGEPREEAGALGPAWDESQLRSYSFPTRPIPRLSQSDPRAEELIENEEPVVLTDTNLVYPALKWDLEYLQENIGNGDFSVYSASTHKFLYYDEKKMANFQNFKPRSNREEMKFHEFVEKLQDIQQRGGEERLYLQQTLNDTVGRKIVMDFLGFNWNWINKQQGKRGWGQLTSNLLLIGMEGNVTPAHYDEQQNFFAQIKGYKRCILFPPDQFECLYPYPVHHPCDRQSQVDFDNPDYERFPNFQNVVGYETVVGPGDVLYIPMYWWHHIESLLNGGITITVNFWYKGAPTPKRIEYPLKAHQKVAIMRNIEKMLGEALGNPQEVGPLLNTMIKGRYN
hydroxylation in an in vitro hydroxylation assay [1]: an up to 50% decrease in hydroxylation of the target aspargine
hydroxylation in an in vitro hydroxylation assay [2]: altering this valine to alanine results in very low levels of hydroxylation
hydroxylation in an in vitro hydroxylation assay [3]: The glutamic acid (E) residue is more important or efficient hydroxylation than D or C
hydroxylation in an in vitro hydroxylation assay [4]: an up to 50% decrease in hydroxylation of the target aspargine
hydroxylation assessed by counting liberated 14CO2 [5]: the degree of hydroxylation for each mutant normalised to the level observed for the wild type HIF-1α CAD sequence
hydroxylation in an in vitro hydroxylation assay [6]: an approximately 50% decrease in hydroxylation
hydroxylation in an in vitro hydroxylation assay [7]: Substituting alanine in place of tyrosine (Y) has little effect
